# Laboratory results: the nanobody polyreactivity screen of Harvey et al. (2022)
# Experiment: yeast display, Sf9 membrane polyspecificity reagent, FACS + sequencing; frameworks hold sequencing errors
# Outline: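 A nanobody's polyreactivity label depends on the gate it was sorted from. Yeast display cells were stained with 10% biotinylated, detergent-solubilized Sf9 membrane reagent for 1 hour at 4 °C, enriched on streptavidin microbeads and sorted by FACS. The low and high (top ~1%) gates were set on anti-HA fluorescence for expression and streptavidin fluorescence for reagent binding.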
row,Sequence,polyreactivity (PSR sort gate)
1,QVQLVESGGGLVQAGGSLRLSCAASGRTFKWYAMGWYRQAPGKERELVAGISRGAGRTYYADSVKWRFTISRDNAKNTFYLEMNSLKPEDTAVYYFAASPVRDGKVIDGRDYWGQGTQVTVSS,high polyreactivity
2,QVQLVESGGGLVQAGGSLRLSCAASGRTFKYNAMGWYRQAPGKERELVATITRSGGSTYADSVKGRFTISRDNAKNTVYLQMNSLKPEDTAVYYCNLFHVTKDYKTYPQSRYDYWGQGTQVTVSS,high polyreactivity
3,QVQLVESGGGLVQAGGSLRLSCAASGRTFKYYAMGWYRQAPGKERELVAGISSTGRTNYADSVKGRFTISRDNAKNTVYLQMNSLKPEDTAVYYCNAERKSFGKFDYWGQGTQVTVSS,high polyreactivity
4,QVQLVESGGGLVQAGGSLRLSCAASGRTFKYYAMGWYRQAPGKERELVATINYSGGGTYYADSVKRRFTSSRDNAKNTVYLQMNSLKPEDTAVYYCAATRYSFGPRRVDYWGQGTQVTVSS,high polyreactivity
5,QVQLVESGGGLVQAGGSLRLSCAASGRTFKYYTMGWYRQAPGKERELVAAISGSGSRTYYADSVKGRFTISRDNAKNTVYLQMNSLKPEDTAVYYCAARRRISSGYSGPPWIYGYWGQGTQVTVSS,high polyreactivity
6,QVQLVESGGGLVQAGGSLRLSCAASGRTFKYYTMGWYRQAPGKERELVAGINGGGGSTYYADSVKGRFTISRDNAKNTVYLQMNSMKPEDTAVYYCAVDPFAYFSYWTYDYWGQGTQVTVSS,high polyreactivity
7,QVQLVESGGGLVQAGGSLRLSCAASGRTFKYYTMGWYRQAPGKERELVATISSSATSTYYADSVKGRFTISRDNAKNTVYLQMNSLKPEDTAVYYCAVERDYGWPIYIRWHFDYWGQGTQVTVSS,low polyreactivity
8,QVQLVESGGGLVQAGGSLRLSCAASGRTFKYYTMGWYRQAPGKERELVAVIRGTGSTYYADSVKGRFTISRDNAKNTVYLQMNSLKPEDTAVYYCAVQVRRRYNYWGQGTQVTVSS,high polyreactivity
9,QVQLVESGGGLVQAGGSLRLSCAASGRTFLANAMGWYRQAPGKERELVAAITWSGGRTNYADSVKGRFTISRDNAKNTVYLQMNSLKPEDTAVYYCAADIFYEQVVGGTDVGYHDFDYWGQGTQVTVSS,low polyreactivity
10,QVQLVESGGGLVQAGGSLRLSCAASGRTFLIYDMGWYRQAPGKVRELVAAIRDRGATTYYADSVKGRFTISRDNAKNTVYLHMNSLKPEDTSVYYCSARNGAYPALKEGDYWGQGTQVTVSS,high polyreactivity
11,QVQLVESGGGLVQAGGSLRLSCAASGRTFLLYAMGWYRQAPGKERELVAAISIGGGSTRYADSVKGRFTISRDNAKNTVYLQMNSLKPEDTAVYYCAALGRRGGDYWGQGTEVTVSS,high polyreactivity
12,QVQLVESGGGLVQAGGSLRLSCAASGRTFLLYAMGWYRQAPGKERELVAAISSGGSTYYADSVKGRFTISRDNAKNTVYLQMNSLKPEDTAVYYCNAVYQHLASEYDYWGQGTQVTVSS,low polyreactivity
13,QVQLVESGGGLVQAGGSLRLSCAASGRTFLPYAMGWYRQAPGKERELVAAITSGGSTSYADSVKGRFTISRDNAKNTVYLQMNSLKPEDSAVYYCAKGYYRFRRFYYGGYYWGQGTQVTVSS,low polyreactivity
14,QVQLVESGGGLVQAGGSLRLSCAASGRTFLRYAMGWYRQAPGKERELVAAISSRGGTTHYADSVKGRFTISRDNAKNTVYLLMNSLKPEDTAVYYCAAKSFLPYLKFGYWGQGTQVTVSS,high polyreactivity
15,QVQLVESGGGLVQAGGSLRLSCAASGRTFLRYAMGWYRQAPGKERELVAAISVSGGNTYYADSVKGRFTISRDNAKNTVYLQMKSLKPEDTAVYYCNKARLAAVFSYPYGYWGQGTQVTVSS,low polyreactivity
16,QVQLVESGGGLVQAGGSLRLSCAASGRTFLRYTMGWYRQAPGKERELVASITRGGSTYYADSVKGRFTISRDNAKNTVYLQMNSLKPEDTAVYYCAVDVYGSHYYTGSLGKPDGYWGQGTQVTVSS,high polyreactivity
17,QVQLVESGGGLVQAGGSLRLSCAASGRTFLSYAMGWYRPAPGKERELVAAIRWRTGSRTYYADSVKGRFTISRDNAKNKVYLQLNSLKPEDTAVYLCANTYWYPYGYWGQGTQVTLSS,low polyreactivity
18,QVQLVESGGGLVQAGGSLRLSCAASGRTFLSYTMGWYRQAPGKERELVAAITTSGGSTNYADSVKGRFTISRDNAMNNVYLQMNSLKPEDTAVYYCADEWSVYFNDPRSDYWGQGTQVTVSS,high polyreactivity
19,QVQLVESGGGLVQAGGSLRLSCAASGRTFLVNAMGWSRQAPGKERELVAAISQRGGSTDYADSVKGRFTISRDNAKNTVYLQMNSLKPEDTAVYYCAVRWGYLYDYWGQGTQVTVSS,low polyreactivity
20,QVQLVESGGGLVQAGGSLRLSCAASGRTFLVYAMGWYRQAPGKERELVATIRASTGSTYADSVKGRFTISRDNAKNTVYLQMNSLKPEDTAVYYCAASIRTSPYNYDYWGQGTQVTVSS,high polyreactivity
21,QVQLVESGGGLVQAGGSLRLSCAASGRTFLWNDMGWYRQAPGKERELVAAITGSDGTYADSVKGRFTISRDNAKNTVYLQMNSLKPEDTAVYYCAAETYGYFPWKYDYWGQGTQVTVSS,low polyreactivity
22,QVQLVESGGGLVQAGGSLRLSCAASGRTFLWYAMGWYRQAPGKERELVAAIRWRGTSTYYADSVKGRFTISRDNAKNTVYLQMNSLKPEDTAVYYCAAKVRSLYWFDYWGQGTQVTVSS,high polyreactivity

row,Sequence,polyreactivity (PSR sort gate)
1,QVQLVESGGGLVQAGGSLRLSCAASGRTFLWYAMGWYRQAPGKERELVAAITTAGSTYYADSVKGRFTISRDNAKNTVYLQMNSLKPEDTAVYYCNRLTYAYPPPVLGVGHDSWGQGTQVTVSS,low polyreactivity
2,QVQLVESGGGLVQAGGSLRLSCAASGRTFLYNAMGWYIQAPGKERELVAAISWNGGRTYYADSVKGRFTISRDNAKNTVYLQMNSLKPEDTAVYYCAKVDQLYNSRYDYWGQGTQVTVSS,high polyreactivity
3,QVQLVESGGGLVQAGGSLRLSCAASGRTFLYNAMGWYRQAHGKERELVAAIDQSGGSTYYADSVKGRFTISRDNAKNTVYLQMNSLKPEDTAVYYCAAYWEGSWYYKKYYYWGQGTQVTVSS,high polyreactivity
4,QVQLVESGGGLVQAGGSLRLSCAASGRTFLYNAMGWYRQAPGKERELVAAISFDDGSTYYADSVKGRFTISRDNAKNTVYLQMNSLKPEDTAVYYCAAEYLYVGDSQAYNQYEYWGQGTQVTVSS,low polyreactivity
5,QVQLVESGGGLVQAGGSLRLSCAASGRTFLYNAMGWYRQAPGKERELVAAISWSGGSTYYADSVKGRFTISRDNAKNTVYLQMIILKPEDTAVYYCAATGRRSGFYYWGQGTQVTVSS,high polyreactivity
6,QVQLVESGGGLVQAGGSLRLSCAASGRTFLYNAMGWYRQAPGKERELVAGITQSGSSTYYADSVKGRFTISRDNAKNTVYLQMNSLKPEDTAVYYCAKVLYRRGYKFDYWGQGTQVTVSS,low polyreactivity
7,QVQLVESGGGLVQAGGSLRLSCAASGRTFLYYAMGWDRPAPGKERELVAAITRGGGSTYYADSVKGRFTISRDNAKNTVYLPMNSLKPEDTAVYYCAVEYRVDYYVEYDYWGQGTQVTVSS,high polyreactivity
8,QVQLVESGGGLVQAGGSLRLSCAASGRTFLYYAMGWYRQAPGKERELVAGITSGGSTNYADSVKGRFTISRDNAKNTVYLQMNSLKPEATAVYYCAVDQGYSRTADVNYDYWGQGTQVTVSS,low polyreactivity
9,QVQLVESGGGLVQAGGSLRLSCAASGRTFNFNAMGWYRQAPGKERELVATITSRGGSTYADSVKGRFTISRDNAKNTVYLQMNSLKPEDTAVYYCNARTPYIRDYQYWRKYDYWGQGTQVTVSS,high polyreactivity
10,QVQLVESGGGLVQAGGSLRLSCAASGRTFNFYAMGWYRQAPGKERELVAAISRTGGITYYADSVKGRFTISRDNAKNTVYLQMNSLKPEDTAVYYCNAEYIYYYPTDPYTYYYWGQGTQVTVSS,low polyreactivity
11,QVQLVESGGGLVQAGGSLRLSCAASGRTFNFYPMGWYRPAPGKERELVAAITVRGGSTYYSDSVKGRFTISRYNAKNTVYLQMNSLKPEDTAVYYCAADPYPYYGAYDYWGQGTQVTVSS,high polyreactivity
12,QVQLVESGGGLVQAGGSLRLSCAASGRTFNFYTMGWYRQAPGKEREFVAGITSTGGSTDYADSVKGRFTISRDNAKNSVYLQMNSLKPEDTAVYYCNKVTSFVGEYDYWGQGTQVTVSS,high polyreactivity
13,QVQLVESGGGLVQAGGSLRLSCAASGRTFNHYAMGWYRQAPGKERELVAGITISGGSTYYADSVKGRFTISRDHAKNTVDLQMNSLKPEATAVYYCNAVSDYYRQSKWTMDYWGQGTQVTVSS,low polyreactivity
14,QVQLVESGGGLVQAGGSLRLSCAASGRTFNKYAMGWYRKAPGKERELVAAINYSGGRTYYADSVKGRFTISRDNAKNTVSLQMNSLKPEDTAVYYCNRDDAWQEYDYWGQGTQVTVSS,low polyreactivity
15,QVQLVESGGGLVQAGGSLRLSCAASGRTFNNYAMGWYRQAPGKERELVASIRKNGGSTYYADSVKGRFTISRDNAKNTVYLQMNSLKPEDTAVYYCGARYWGISRIFPSKYDYWGQGTQVTVSS,high polyreactivity
16,QVQLVESGGGLVQAGGSLRLSCAASGRTFNPYAMGWYRQAPGKERELVAVISSIGGSTYADSVKGRFTISRDNAKNTVYLQMNSLKPEDTAVYYCNRATFGQWGGDYWGQGTQVTVSS,high polyreactivity
17,QVQLVESGGGLVQAGGSLRLSCAASGRTFNRNAMGWYRQAPGKARELVAAISRGGGGTFFADSVKWRFTISRDNAKNTVYLQMNSLKPEDTAFYFCAAVPIAADKANGYDYWGQGTQVTVSS,low polyreactivity
18,QVQLVESGGGLVQAGGSLRLSCAASGRTFNRYAMGWYRQAPGKERELVAAITRGGSTYYADSVKGRFTISRDNAQNTVYLQMNSLKPEDTAVYYCAKYVYSEGYYWGQGTQVTVSS,high polyreactivity
19,QVQLVESGGGLVQAGGSLRLSCAASGRTFNRYAMGWYRQAPGKERELVAVITGSGGAGTYYADSVKGRFTISRDNAKNTVYLQMNSLKPEDTAVYYCNAGGGFYGSTVEHDYWGQGTQVTVSS,low polyreactivity
20,QVQLVESGGGLVQAGGSLRLSCAASGRTFNTYAMGWYRQAPGKERELVAAISRTGASTYYADSVKGRFTISRDNAKNTVYLQMNSLKPEDTAVYYCAADANSGDGYYWGQGTQVTVSS,high polyreactivity
21,QVQLVESGGGLVQAGGSLRLSCAASGRTFNTYDMGWYRQAPGKERELVAAITSRGGTTYYADSVKGRFTITRDNAKNTVYLQMNSLKPEDTAVSYCAADYYSWDYQYDYDYWGQGTQVTVSS,low polyreactivity
